Laboratory results: paper PMC11160672

Target: Biotin carboxylase AccC (E. coli) (UniProt P24182)
Assay: SEC

stoichiometry N: 1
Substance: Biotin-carboxy carrier protein AccB (from UniProt P0ABD8 1-156) (natural protein)
